From patent publication US20200261490

Tests used:
[1] = target: recombinant human stanniocalcin 1, C-terminally myc-his-tagged
[2] = target: recombinant human stanniocalcin 2, C-terminally myc-his-tagged

| Protein | cleavage of 125I-IGFBP-5 by the proteinase with a 10-fold molar excess of STC [1] | cleavage of 125I-IGFBP-5 by the proteinase with a 10-fold molar excess of STC, 8 h preincubation [2] | also measured |
| --- | --- | --- | --- |
| human matrix metalloproteinase-2 (protein) APSPIIKFPGDVAPKTDKELAVQYLNTFYGCPKESCNLFVLKDTLKKMQKFFGLPQTGDLDQNTIETMRKPRCGNPDVANYNFFPRKPKWDKNQITYRIIGYTPDLDPETVDDAFARAFQVWSDVTPLRFSRIHDGEADIMINFGRWEHGDGYPFDGKDGLLAHAFAPGTGVGGDSHFDDDELWTLGEGQVVRVKYGNADGEYCKFPFLFNGKEYNSCTDTGRSDGFLWCSTTYNFEKDGKYGFCPHEALFTMGGNAEGQPCKFPFRFQGTSYDSCTTEGRTDGYRWCGTTEDYDRDKKYGFCPETAMSTVGGNSEGAPCVFPFTFLGNKYESCTSAGRSDGKMWCATTANYDDDRKWGFCPDQGYSLFLVAAHEFGHAMGLEHSQDPGALMAPIYTYTKNFRLSQDDIKGIQELYGASPDIDLGTGPTPTLGPVTPEICKQDIVFDGIAQIRGEIFFFKDRFIWRTVTPRDKPMGPLLVATFWPELPEKIDAVYEAPQEEKAVFFAGNEYWIYSASTLERGYPKPLTSLGLPPDVQRVDAAFNWSKNKKTYIFAGDKFWRYNEVKKKMDPGFPKLIADAWNAIPDNLDAVVDLQGGGHSYFFKGAYYLKLENQSLKSVKFGSIKSDWLGC | None of the proteinases tested was inhibited by STC1, or by STC2 following incubation | None of the proteinases tested was inhibited by STC1, or by STC2 following incubation |  |
| human ADAM-10 (protein) TTSAEKNTCQLYIQTDHLFFKYYGTREAVIAQISSHVKAIDTIYQTTDFSGIRNISFMVKRIRINTTADEKDPTNPFRFPNIGVEKFLELNSEQNHDDYCLAYVFTDRDFDDGVLGLAWVGAPSGSSGGICEKSKLYSDGKKKSLNTGIITVQNYGSHVPPKVSHITFAHEVGHNFGSPHDSGTECTPGESKNLGQKENGNYIMYARATSGDKLNNNKFSLCSIRNISQVLEKKRNNCFVESGQPICGNGMVEQGEECDCGYSDQCKDECCFDANQPEGRKCKLKPGKQCSPSQGPCCTAQCAFKSKSEKCRDDSDCAREGICNGFTALCPASDPKPNFTDCNRHTQVCINGQCAGSICEKYGLEECTCASSDGKDDKELCHVCCMKKMDPSTCASTGSVQWSRHFSGRTITLQPGSPCNDFRGYCDVFMRCRLVDADGPLARLKKAIFSPELYENIAE | None of the proteinases tested was inhibited by STC1, or by STC2 following incubation | None of the proteinases tested was inhibited by STC1, or by STC2 following incubation |  |
| human matriptase (protein) VVGGTDADEGEWPWQVSLHALGQGHICGASLISPNWLVSAAHCYIDDRGFRYSDPTQWTAFLGLHDQSQRSAPGVQERRLKRIISHPFFNDFTFDYDIALLELEKPAEYSSMVRPICLPDASHVFPAGKAIWVTGWGHTQYGGTGALILQKGEIRVINQTTCENLLPQQITPRMMCVGFLSGGVDSCQGDSGGPLSSVEADGRIFQAGVVSWGDGCAQRNKPGVYTRLPLFRDWIKENTGV | None of the proteinases tested was inhibited by STC1, or by STC2 following incubation | None of the proteinases tested was inhibited by STC1, or by STC2 following incubation |  |
| recombinant human PAPP-A (pregnancy-associated plasma protein-A, pappalysin-1) (protein) EARGATEEPSPPSRALYFSGRGEQLRLRADLELPRDAFTLQVWLRAEGGQRSPAVITGLYDKCSYISRDRGWVVGIHTISDQDNKDPRYFFSLKTDRARQVTTINAHRSYLPGQWVYLAATYDGQFMKLYVNGAQVATSGEQVGGIFSPLTQKCKVLMLGGSALNHNYRGYIEHFSLWKVARTQREILSDMETHGAHTALPQLLLQENWDNVKHAWSPMKDGSSPKVEFSNAHGFLLDTSLEPPLCGQTLCDNTEVIASYNQLSSFRQPKVVRYRVVNLYEDDHKNPTVTREQVDFQHHQLAEAFKQYNISWELDVLEVSNSSLRRRLILANCDISKIGDENCDPECNHTLTGHDGGDCRHLRHPAFVKKQHNGVCDMDCNYERFNFDGGECCDPEITNVTQTCFDPDSPHRAYLDVNELKNILKLDGSTHLNIFFAKSSEEELAGVATWPWDKEALMHLGGIVLNPSFYGMPGHTHTMIHEIGHSLGLYHVFRGISEIQSCSDPCMETEPSFETGDLCNDTNPAPKHKSCGDPGPGNDTCGFHSFFNTPYNNFMSYADDDCTDSFTPNQVARMHCYLDLVYQGWQPSRKPAPVALAPQVLGHTTDSVTLEWFPPIDGHFFERELGSACHLCLEGRILVQYASNASSPMPCSPSGHWSPREAEGHPDVEQPCKSSVRTWSPNSAVNPHTVPPACPEPQGCYLELEFLYPLVPESLTIWVTFVSTDWDSSGAVNDIKLLAVSGKNISLGPQNVFCDVPLTIRLWDVGEEVYGIQIYTLDEHLEIDAAMLTSTADTPLCLQCKPLKYKVVRDPPLQMDVASILHLNRKFVDMDLNLGSVYQYWVITISGTEESEPSPAVTYIHGSGYCGDGIIQKDQGEQCDDMNKINGDGCSLFCRQEVSFNCIDEPSRCYFHDGDGVCEEFEQKTSIKDCGVYTPQGFLDQWASNASVSHQDQQCPGWVIIGQPAASQVCRTKVIDLSEGISQHAWYPCTISYPYSQLAQTTFWLRAYFSQPMVAAAVIVHLVTDGTYYGDQKQETISVQLLDTKDQSHDLGLHVLSCRNNPLIIPVVHDLSQPFYHSQAVRVSFSSPLVAISGVALRSFDNFDPVTLSSCQRGETYSPAEQSCVHFACEKTDCPELAVENASLNCSSSDRYHGAQCTVSCRTGYVLQIRRDDELIKSQTGPSVTVTCTEGKWNKQVACEPVDCSIPDHHQVYAASFSCPEGTTFGSQCSFQCRHPAQLKGNNSLLTCMEDGLWSFPEALCELMCLAPPPVPNADLQTARCRENKHKVGSFCKYKCKPGYHVPGSSRKSKKRAFKTQCTQDGSWQEGACVPVTCDPPPPKFHGLYQCTNGFQFNSECRIKCEDSDASQGLGSNVIHCRKDGTWNGSFHVCQEMQGQCSVPNELNSNLKLQCPDGYAIGSECATSCLDHNSESIILPMNVTVRDIPHWLNPTRVERVVCTAGLKWYPHPALIHCVKGCEPFMGDNYCDAINNRAFCNYDGGDCCTSTVKTKKVTPFPMSCDLQGDCACRDPQAQEHSRKDLRGYSHG |  |  | PAPP-A cleavage of IGFBP-4 with purified STC added at the beginning of the cleavage reaction [1]: STC1 still inhibited PAPP-A; PAPP-A cleavage of IGFBP-4 with purified STC added at the beginning of the cleavage reaction [2]: in this experiment, no inhibitory effect of STC2 was observed; PAPP-A mediated cleavage of 125I-IGFBP-4 after overnight pre-incubation [2]: the presence of STC2 fully inhibited PAPP-A mediated IGFBP-4 cleavage; PAPP-A proteolytic activity towards IGFBP-4 after 16 h incubation [2]: after 16 hours of incubation with STC2, PAPP-A showed no activity |
| human PAPP-A2 (pappalysin-2) (protein) PPEESNQNGGEGSYREAETFNSQVGLPILYFSGRRERLLLRPEVLAEIPREAFTVEAWVKPEGGQNNPAIIAGVFDNCSHTVSDKGWALGIRSGKDKGKRDARFFFSLCTDRVKKATILISHSRYQPGTWTHVAATYDGRHMALYVDGTQVASSLDQSGPLNSPFMASCRSLLLGGDSSEDGHYFRGHLGTLVFWSTALPQSHFQHSSQHSSGEEEATDLVLTASFEPVNTEWVPFRDEKYPRLEVLQGFEPEPEILSPLQPPLCGQTVCDNVELISQYNGYWPLRGEKVIRYQVVNICDDEGLNPIVSEEQIRLQHEALNEAFSRYNISWQLSVHQVHNSTLRHRVVLVNCEPSKIGNDHCDPECEHPLTGYDGGDCRLQGRCYSWNRRDGLCHVECNNMLNDFDDGDCCDPQVADVRKTCFDPDSPKRAYMSVKELKEALQLNSTHFLNIYFASSVREDLAGAATWPWDKDAVTHLGGIVLSPAYYGMPGHTDTMIHEVGHVLGLYHVFKGVSERESCNDPCKETVPSMETGDLCADTAPTPKSELCREPEPTSDTCGFTRFPGAPFTNYMSYTDDNCTDNFTPNQVARMHCYLDLVYQQWTESRKPTPIPIPPMVIGQTNKSLTIHWLPPISGVVYDRASGSLCGACTEDGTFRQYVHTASSRRVCDSSGYWTPEEAVGPPDVDQPCEPSLQAWSPEVHLYHMNMTVPCPTEGCSLELLFQHPVQADTLTLWVTSFFMESSQVLFDTEILLENKESVHLGPLDTFCDIPLTIKLHVDGKVSGVKVYTFDERIEIDAALLTSQPHSPLCSGCRPVRYQVLRDPPFASGLPVVVTHSHRKFTDVEVTPGQMYQYQVLAEAGGELGEASPPLNHIHGAPYCGDGKVSERLGEECDDGDLVSGDGCSKVCELEEGFNCVGEPSLCYMYEGDGICEPFERKTSIVDCGIYTPKGYLDQWATRAYSSHEDKKKCPVSLVTGEPHSLICTSYHPDLPNHRPLTGWFPCVASENETQDDRSEQPEGSLKKEDEVWLKVCFNRPGEARAIFIFLTTDGLVPGEHQQPTVTLYLTDVRGSNHSLGTYGLSCQHNPLIINVTHHQNVLFHHTTSVLLNFSSPRVGISAVALRTSSRIGLSAPSNCISEDEGQNHQGQSCIHRPCGKQDSCPSLLLDHADVVNCTSIGPGLMKCAITCQRGFALQASSGQYIRPMQKEILLTCSSGHWDQNVSCLPVDCGVPDPSLVNYANFSCSEGTKFLKRCSISCVPPAKLQGLSPWLTCLEDGLWSLPEVYCKLECDAPPIILNANLLLPHCLQDNHDVGTICKYECKPGYYVAESAEGKVRNKLLKIQCLEGGIWEQGSCIPVVCEPPPPVFEGMYECTNGFSLDSQCVLNCNQEREKLPILCTKEGLWTQEFKLCENLQGECPPPPSELNSVEYKCEQGYGIGAVCSPLCVIPPSDPVMLPENITADTLEHWMEPVKVQSIVCTGRRQWHPDPVLVHCIQSCEPFQADGWCDTINNRAYCHYDGGDCCSSTLSSKKVIPFAADCDLDECTCRDPKAEENQ |  |  | cleavage of 125I-IGFBP-5 by PAPP-A2 [1]: both STCs were able to partially inhibit PAPP-A2 (pappalysin-2); cleavage of 125I-IGFBP-5 by PAPP-A2 [2]: both STCs were able to partially inhibit PAPP-A2 (pappalysin-2) |
